Test: soluble on expression in E. coli; label from the status in PepcDB or PDB records

Sequence	soluble on expression in E. coli
MSLAEPDDDWLHVEGTNIVDKYGNKVWITGANWFGFNCRERMLLDSYHSDIIADIELVADKGINVVRMPIATDLLYAWSQGIYPPSTDTSYNNPALAGLNSYELFNFMLENFKRVGIKVILDVHSPETDNQGHNYPLWYNTTITEEIFKKAWVWVAERYKNDDTIIGFDLKNEPHTNTGTMKIKAQSAIWDDSNHPNNWKRVAEETALAILEVHPNVLIFVEGVEMYPKDGIWDDETFDTSPWTGNNDYYGNWWGGNLRGVKDYPINLGKYQSQLVYSPHDYGPIVYEQDWFKGDFITANDEQAKRILYEQCWRDNWAYIMEEGISPLLLGEWGGMTEGGHPLLDLNLKYLRCMRDFILENKYKLHHTFWCINIDSADTGGLFTRDEGTPFPGGRDLKWNDNKYDNYLYPVLWKTEEGHHHHHH	not soluble
MSLAETVLEKARAKNEIRIATSDSLKPWGYMDDTNKPIGFNLDVSREMGKRMGFGKVTFVTDSYKNFISGLNADRYDMVVAILTPTEERRKSADFSNPYMVVSKNIFVRDDNTSIRSLEDLAGKRLGVAAGTTDEAWARQHVKDAQIRVYDNFFLALQDLAIGRVDARITDRVTGMTAAKEGRFPVKIAGPDLSQDIGAIAYKKGQDDLAAIVNKVIQEMVDDGSLNEISRKWLAGIEMGEELKKLPKDAREGHHHHHH	soluble
MSLAFVPHVPRHSRGDNPPSASTASPAVLTLTGERTIPDLDIENYWFRRHQVVYQRLAPRCTARDVLEAGCGEGYGADLIACVARQVIAVDYDETAVAHVRSRYPRVEVMQANLAELPLPDASVDVVVNFQVIEHLWDQARFVRECARVLRGSGLLMVSTPNRITFSPGRDTPINPFHTRELNADELTSLLIDAGFVDVAMCGLFHGPRLRDMDARHGGSIIDAQIMRAVAGAPWPPELAADVAAVTTADFEMVAAGHDRDIDDSLDLIAIAVREGHHHHHH	soluble
MSLAILIVECMQEISSFNPVPSDYELFHIEEGEDLFQHRGRNTAIGGALSVLEATPGVTLIPTVAARADSAGILSAEGWARLSAQILDRVRAGVGGADAIYVSLHGAMGAVGEPDPEGWLLAQIRALAGPDRPIIISLDLHGILTERMIAQVDGIAVYHTYPHVDFADTGARAARLLLDRLTARRPASIVRAVIPALVRGDELITATGCYGDLIRECRRLEADGMVLAAGLMIGNPFTDAPELCSQVVLTTDDPLRGRAEAERLAAAFWALRHRMQGRLIGLSDAVAEARTLTGPVVFTDAADATSSGASGDSNAILRGLLAADYPGRVLAQIVDPQAAEAAHRAGVGAEIPVTLGGRMDPARFTPLEVTARVRLLSDGLTRLETMKTPLNAGRCAVLEFGTVTVVAMSLPAMLFDRAIYYANGLDPADFDLIVVKSPHTEHHMYDAWVTRNFNIDTPGSTSADLASLGHRICARPMFPLDPLTDFTPRATAHLRADRSEGHHHHHH	soluble
MSLAISQEQKQAIDQALTERLLHHPFYQEAKVIATYLSFSHEFQTRELIEQALKDGKKVLIPKTYPKGRMEFVAYDPQQLVKTSFALLEPQGDVEVVDASQIDLIHVPGLAFTTKGYRIGYGGGYYDRYLEHFSGRTLSTIYPCQIQDFIPENHDIPVQEVLIDEGNLEGHHHHHH	soluble
MSLAIVAKRTIMSLFSDVDDVYSHQVRIVLAEKGVNVEILAVKQDEPGADLLSINPYGTVPTLIDRELVLYEARIIMEYLDERFPHPPLLPVYPVARAEARKMMHRIEQDWYYLMNAILREESVEQARANLLESLTSLDPVFADKPYFLSDEFSLLDCALAPLLWRLPKLGLEIAPNFKGIISYMQRVFKRDSFQTSLTDAERQIRAAEGHHHHHH	soluble
MSLAKLNMNNEIKKVEQRLEKAIKSKDSVLEQASLHLLSSGGKRVRPAFVILSSQFGKDEQTSEQTYQVAVALELIHMATLVHDDVIDKSDKRRGKLTISKKWDQTTAILTGNFLLALGLEHLMAVKDNRVHQLISESIVDVCRGELFQFQDQFNSQQTIINYLRRINRKTALLIQISTEVGAITSQSDKETVRKLKMIGHYIGMSFQIIDDVLDFTSTEKKLGKPVGSDLLNGHITLPILLEMRKNPDFKLKIEQLRRDSERKEFEECIQIIRKSDSIDEAKAVSSKYLSKALNLISELPDGHPKSLLLSLTKKMGSRNTEGHHHHHH	soluble
MSLAKSVFYYHRCQFDVKDKYGDLKQRITELYHQHKGRYGYRRVTAALKQLDCHHNHKLIAKLMHDMKLSAKIRRQKYRSYKGQQGKIAKNYLKRQFHADKPNKRWLTDITEFKVGDDKLYLSPILDCYNNEIVSYTLSKRPTYDLVGKMLEDALAKTKACRDNKLMLHSDQGWHYQMRLFGQVLKQHGIKQSMSRKGNCLDNALMEGFFGTLKCETIYIEKPNSIEGLEKQIHEYIHYYNHERIQLKLKGLSPVKYRTQSLIEGHHHHHH	not soluble
MSLAKTIAYLRVSTSQQDLKNQKFEILDYAQKNGLSIDDFVEVEISSRKSVEERKIDYLVSMLSQGDRVIVSELSRIGRSTVEVLNIINELASKKVFLIAIKQNLNINGSENLQAKVMVTMFSLFAELERDLISDRTKRALEARKAAGVKLGRPKGATGVSKLDGMEGQITELLRKQVSLSSIAKIFSVSRGTVYSFIATRGLTAEGHHHHHH	not soluble
MSLALAVQNTDTIGVVVTDVTDAFFAILVKAVDKVAEAHQKTILIGIGYHHAEKEREAINTLLRKRCSSLVVHSKALSDDELSHYLNTVQGMVIINRVIKGYEHRCVSLDNQKGTYLATEMLIRYGHQHIAYIGSNHAIFDEVERRNGYLAALKDHNYLIIEQAITLNSPDFEGGEKAMIDLLSYNKNLTAVVAYNDSMAAGAISVLNENNISVPSQFSIIGFDDMPIARYLIPKLTTIRYPIDLMATYAAKLALSLTDEKIITPPVVQFNPTLVRRFSVESREGHHHHHH	soluble
MSLALSRIDGQDELFVGGLWALRRSDSLTDRRITHVLSLVPFDISSLKNFKDEPWIDYGKDFRHQLIDIDDVEDSDLLIELPKAVRFIEEGLGANYMEHADDDGGVSLEKDVDVVEKKRKKKGGVFVHCAVGKSRSVSAVIAYLLRRYPSRFDPNITPTAISDPSQSTGSETSAEKRSRKETAQEAVHAALTYVRRTRPMAEPNEGFMEQLALWWEMEEGHHHHHH	not soluble
MSLALVAEKLSEQWRAELDSRGLDAAPMADWMTVCRRLSLALAGTGLSLEEIRSLQRLPEADRVETHRERLLNSERFHHYWAERTARYLVGADEGPFIFYRGRRFRSWLTEQYAKNTRYDELVRMLITAEGVWTDRPEVNFHTVTFDSGDNAPDPIRLAARTTRAFLGVRIDCLQCHDDFLGNVSLGDASWIMCGVGDATMQAAAEGDAKYVLREGTQEDFHSLAAFFTAATSEGVQGLKDKRANYEYQYLYADETVPVEPNVPFLRELLPPRPENRQDDSSDDDSTDTTDESASDEPSDAPEPLELPRYLSDRERLAYWLTHTENKPAARAAVTRVWTLLFGQPPAIETDYGFQVGEVDNLPLDSPPSPLIETLTEAFIESDFNIRKLIRCITDSPAFRVSSRADFDVTEQHELAMAVFPVTHLRSEQVAGAAIQAGRIKTINRDSSFLVQLQQFGSLNDFLKRYGDLGEDEFTQQPVTITQRLVMLNGKLINETASPNPILNASSHIEMFAKDDEDVVRTLYLTVLNREPSERELEHFVKRLTAESREQNDPPTSRKQEITDLTWILLNSSEFAWNHEGHHHHHH	not soluble
MSLANNKVHFIAIGGAVMHNLALALHHKGYLVSGSDDEIFEPSRTRLAAYNLLPAEMGWFPEKITTDLDAVILGMHARNDNPELQKARELGIKIYSFPEYIYEQSKDKQRIVIAGSHGKTTITAMIMHVLKTHKRKFDYLVGAKLDGFETMVQITDDAPIIIIEGDEYLTSPLDLTPKFLHYHHHIGLISGVAWDHINVYPTFEEYVKQFDAFADSTPKGGILIYSESDDLATLVADKPRPDVQAIGYSAPKHEIVNGITYLLTDKGKIELEVFGKHNLKNINAAKNVCLKIGITEAMFYDAIKTFKGAANRLEILGRGKHNVVFKDFAHAPSKLKATSKAVKKQFSDRKLIAVLELHTFSSLNKEFLSQYKDTYKAPDEPIVYFNPETVKHKRLEEITEADIIEAFDNPKLNVFTDSKKLEEFLFSHDWKHSNLLLMSSGNFGGIDLKKLTSHVLNQHAEGHHHHHH	soluble
MSLAPRDLIDIDRIFMEPAVADYPRGREILSRFPNAERIAVPSHWNIPELHGNEGSVEDWVRIKRSTLVLGVKKGLAMRPNGRSAHFIAPSTSNGCAMACAYCYVPRRKGFSNPISLFVNVEAVSAAIARHAAKQGPLPEPDQIDEAAWVYDLGENGDLSVDAMICDTVRDLVGLFRTLPNAKGSFATKAVNRDLLAYDPQGRTRIRFSLMPAPIARVVDVRTAPIRERIAAIDDFVAAGYEVHVNFSPVILYEGWEADWAELFAEIDGSISDAAKAQLKCEIIMLTHNAGLHEVNLGWHPKAEALLWRPDIQETKRSEGGGDNLRYRTGEGHHHHHH	not soluble
MSLAQLEHALQHDLQRLAHGGEPWVRPRVHPAGHVYDVVIVGAGQSGLGAAFALQRERVHNVLVIDENPPGQEGPWVTYARMQTLRTPKQITSIDLGVPTLTFRAWWEAQHGAAGWDALDKIPRGTWMDYLRWYRAALRLPVRNATQLVRIEPDAAPGIHRLHLAMGAPLMARKIILATGIQGGGQWQVPEWITQALPAQRYAHTSGPIDYAALAGKRVGILGGGASAFDNACFALDQGVARAEVFVRRAALPRVNPIRHMEQAGIIPRFAALPDADKYRMMASFFGRNQPPTNDTFQRACAHAGFALHLDAPWLGVEEHNDVVVVRTPQGEHRFDFLAIATGLVTDPRLRPELAALSGRIACWADRYQAPPGQANPVLDAHPYLGPGFELLPRTPDDAAAVDGLFAFNYSALINHGLSAAALSGLKVALPRLARAVADQLFLDDRQAMVEAYLGYDQAEFVGQWPQPTQAVALEHHHHHH	soluble
MSLARANIDTDAILPKQFMKSIERTGFGVHLFDGFRYLDAGSLGMDCSRRPENPDFILNWPRYREASILLAGANFGCGSSREHAPWAIEQYGFRVLIASSFADIFRDNCFKNGLLPIVLASETMDRLFDEVSHQVGFELEVDLPRQTISCPAGWCIEFEMDSIRKAHLLEGIDEIGSTLSLSKKIGDFERARRQSHPWFFGAEGHHHHHH	not soluble
MSLARFFQPKKHSTLDTKHQPVTIERLDHQGSGLAFLHKKPLFVDGALPGEEVLIQLTENKSKYARGQLIKVLKPSAERVAPFCAHYAQCGGCDLQHLDRAGQIHHKQQALSQLMVKFAGQSLALSAPVCSDDQGYRRRARLSLMWDKKTQQLQLGFRRKQSKAIVNVTHCPVLEPSLNALLPDLNALLSEWSQPERLGHVELVKGDNTRVLVLRHLGALIEQDQQRLTDFASQNQLTLYLMLEAGELQHVQGEAPYCEETGSRLSFLPSHFIQVNRAVNQHMVVQALNWLEVSPQERVLDLFCGLGNFTLPLAKQAQAVVGVEGVDEMVQHATHNAKLNQINNVAFYQANLEQDMTSASWAQQKFAKVLLDPARAGAEGIVDQLSALGAKRVVYVSCNPATLARDSQSLLSQGFRLEKLGMLDMFPHTSHLESMALFVKKGEGHHHHHH	soluble
MSLATEQIQHIAIVGCVHGKYREMYRQLSEYEKSTGKEISFVICTGDMQTLRYEADLVYLKVPPKYKQMGDFHLYYEGKEKAPYLTLFIGGNHESSNVLLHLYNGGFVCFNMYYLGVCSCININGLRIVGVSGIYKSFDEKKPYTYPPSPNDVVSLFHTRNYVIQMLSNLSQSSQIDISLSHDWPQGIVMKGNYKQLYRFQPGFKKDGASLGSPINKVILNTLKPKYWISGHMHCEYHAEEGPTHFIALGKIGYKNAISYLDLPLKQKTDLEYDKDWVCNLIMTWPAFSNKAQFPDLSYSISELLSKRTKELDKKIIELWEKYIGLKIIYDSDTFDIQFTSRRFYIEKIYNELNINEGHHHHHH	soluble

Source: the DeepSol protein solubility set
